# Experimental data as given in patent publication US7385023B1, “Cancer immunotherapy and diagnosis using cytochrome P450 1B1” (Trustees of Boston University, priority 2000, dated 2008).
# Peptide text beside a SMILES is read from it.
# B1: CYP239-139 heteroclitic peptide (YLYDVMPWV) (peptide)
# peptide: YLYDVMPWV
# notes: Designed variant of CYP239 changed at positions 1, 3 and 9
# B2: CYP239-19 heteroclitic peptide (YLVDVMPWV) (peptide)
# peptide: YLVDVMPWV
# notes: Designed variant of CYP239 changed at positions 1 and 9
# B3: CYP239 peptide from cytochrome P450 1B1 (SLVDVMPWL) (peptide)
# peptide: SLVDVMPWL
# notes: Synthetic peptide bought from Sigma Genosys
# Experiments:
# T2 cells = test: 51Cr release cytotoxicity assay, peptide-pulsed T2 cells; assay type: cell-based; details: for recognition by CYP239-specific CTL of target cells pulsed with heteroclitic peptide: CTL generated against wild type CYP239
# Description: To assess cytolytic function CTL lines were used after at least four antigenic stimulations in standard ^51Cr release assays as previously described (Vonderheide et al., Immunity 10:673-679, 1999).
# [1] = tested on: T cells from HLA-A2+ healthy donors; details: for healthy donors with peptide-specific T cells detected / expansion: n=8, day 10
# [2] = tested on: T cells from HLA-A2+ multiple myeloma patients; details: n=10
# [3] = tested on: HLA-A2+ ovarian carcinoma cell line 36M
# Description: To assess cytolytic function CTL lines were used after at least four antigenic stimulations in standard ^51Cr release assays as previously described (Vonderheide et al., Immunity 10:673-679, 1999). […] Monocytes as targets were isolated from PBMC by RosetteSep® (Stem Cell Technologies, Vancouver) following the manufacturer's recommendations.
# [4] = tested on: primary follicular lymphoma (FL) cells; test: 51Cr release cytotoxicity assay, primary follicular lymphoma; assay type: cell-based, human; details: HLA-A2+ CYP1B1+ FL, CTL from healthy donors
# Method: CYP1B1-specific CTLs were then evaluated for cytotoxicity against primary tumor tissue.
# [5] = tested on: CD8+ T cells of healthy HLA-A2+ donors; test: Ex vivo generation of peptide-specific CTL from healthy HLA-A2+ donors
# Method: From a single blood draw, professional APCs, including DCs and CD40-activated B cells, are generated, and the remaining PBMCs are enriched for CD8+ T cells. T cells are primarily stimulated with peptide-pulsed DC, and repeatedly stimulated with peptide-pulsed CD40-B cells. Peptide-specificity and HLA-restriction is analyzed after a total of 2-5 stimulations, depending on the antigen under study.
# CTL were generated as previously described (Vonderheide et al., Immunity 10:673-679, 1999), CD8^+ T cells (>80% CD8^+, >95% CD3^+, <2.0% CD4^+, and <5% CD56^+) were isolated from PBMC by negative selection using magnetic beads. B cells were activated via CD40, and DC were prepared from peripheral blood monocytes with IL-4 and GM-CSF (Schultze et al., J. Clin. Invest. 100:2757-2765, 1997). DC were harvested after 7 days, pulsed with peptide (40 μg/ml) and β2-microglobulin (3 μg/ml) for 2 hr at 37° C., irradiated (33 Gy), and added to autologous CD8+ T cells at a T:DC ratio of 20:1 in RPMI media supplemented with 10% human AB serum, 2 mM glutamine, 15 μg/ml gentamicin, 20 mMHEPES, and 15 ng/ml IL-7 (Endogen, Woburn, Mass.). At day 7 and weekly thereafter, T cell cultures were harvested and restimulated with irradiated (33 Gy), peptide-pulsed (10 μg/ml) autologous CD40-activated B cells. […]
# HLA-A*0201 = HLA-A*0201 (Homo sapiens, UniProt P04439, D140Y/D185E/D98H/E176V/E277Q/G131W/G231S/I119V/I121R/I166T/I218V/L300P/L318F/N151K/N90K/P208A/P217A/Q86G/Q94H/R138H/R169H/T345S); test: HLA-A2/peptide complex stability on TAP-deficient T2 cells; assay type: binding
# Method: In particular, T2 cells were incubated with peptide in serum-free medium for up to 18 hours, harvested, washed, and subsequently stained with FITC-labeled anti-HLA-A2 mAb BB7.2 (maximum peptide binding). Increase in fluorescence intensity was determined as a function of peptide binding. For analysis of complex stability, T2 cells were cultured in serum-free media for an additional 2, 4, 6, or 24 hours, and subsequently analyzed for HLA-A2 expression by flow cytometry.
# The T2 assay described above was used to determine binding and dissociation rate of heteroclitic peptides engineered for optimal binding to HLA molecules.
# [6] = tested on: HLA-A2+ primary ALL cells; test: 51Cr release cytotoxicity assay, primary ALL; assay type: cell-based, human
# Method: Peptides were pulsed onto TAP-deficient T2 cells, and the maximum binding and the stability over time were assessed by flow cytometry. […] Additional experiments were carried out to characterize these peptides, in particular, CYP190.
# [7] = tested on: CD8+ T cells of HLA-A2+ cancer patients; test: Ex vivo generation of peptide-specific CTL from cancer patients; assay type: cell-based, human
# Description: Similar to experiments described for healthy donors, we next attempted to generate CYP1B1-specific CTL from peripheral blood of cancer patients. […] Due to lower numbers of PBMC available, CYP246-specific CTL cultures were only initiated in patients 3 and 4. […] Because autologous tumor cells were not available from these patients, we tested the same FL samples described above as primary tumor targets. CYP239-specific CTL from patient 1 lysed both HLA-A2^+ FL samples but not the HLA-A2^− (18% vs. 0% at an E:T ration of 30:1).
# [8] = molecular target: T1, HLA-A*0201 on the surface of TAP-deficient T2 cells (human); test: T2 cell assay of HLA-A*0201/peptide complex stability, flow cytometry
# T1 construct: detected with FITC-labeled mAb BB7.2; also called HLA-A2
# [9] = molecular target: T1, HLA-A*0201 on the surface of …; test: TAP-deficient T2 cell assay, flow cytometry
# [10] = molecular target: T1, HLA-A*0201 on the surface of …; test: T2 cell HLA-A*0201 stabilisation assay, flow cytometry with FITC-BB7.2
molecule,measurement,setting,value
CSCC[C@H](NC(=O)[C@@H](NC(=O)[C@H](CC(=O)O)NC(=O)[C@@H](NC(=O)[C@H](CC(C)C)NC(=O)[C@@H](N)Cc1ccc(O)cc1)C(C)C)C(C)C)C(=O)N1CCC[C@H]1C(=O)N[C@@H](Cc1c[nH]c2ccccc12)C(=O)N[C@H](C(=O)O)C(C)C [CYP239-19] (H-YLVDVMPWV-OH; N-terminus and C-terminus assumed),recognition by CYP239-specific CTL of target cells pulsed with heteroclitic peptide,T2 cells,equally well
CSCC[C@H](NC(=O)[C@@H](NC(=O)[C@H](CC(=O)O)NC(=O)[C@H](Cc1ccc(O)cc1)NC(=O)[C@H](CC(C)C)NC(=O)[C@@H](N)Cc1ccc(O)cc1)C(C)C)C(=O)N1CCC[C@H]1C(=O)N[C@@H](Cc1c[nH]c2ccccc12)C(=O)N[C@H](C(=O)O)C(C)C [CYP239-139] (H-YLYDVMPWV-OH; N-terminus and C-terminus assumed),recognition by CYP239-specific CTL of target cells pulsed with heteroclitic peptide,T2 cells,do not recognize
CSCC[C@H](NC(=O)[C@@H](NC(=O)[C@H](CC(=O)O)NC(=O)[C@@H](NC(=O)[C@H](CC(C)C)NC(=O)[C@@H](N)CO)C(C)C)C(C)C)C(=O)N1CCC[C@H]1C(=O)N[C@@H](Cc1c[nH]c2ccccc12)C(=O)N[C@@H](CC(C)C)C(=O)O [CYP239] (H-SLVDVMPWL-OH),healthy donors with peptide-specific T cells detected / expansion,[1],No expansion
same,patients with reactive T cells >0.05% on day 10,[2],4
same,cytotoxicity against 36M by peptide-specific CTL,[3],specific cytotoxicity
same,cytotoxicity for HLA-A2+ FL by peptide-specific CTL,[4],cytotoxic
CC(C)C[C@H](NC(=O)[C@@H](N)Cc1c[nH]c2ccccc12)C(=O)N[C@@H](CCC(N)=O)C(=O)N[C@@H](Cc1ccc(O)cc1)C(=O)N[C@@H](Cc1ccccc1)C(=O)N1CCC[C@H]1C(=O)N[C@@H](CC(N)=O)C(=O)N1CCC[C@H]1C(=O)N[C@H](C(=O)O)C(C)C [CYP246] (H-WLQYFPNPV-OH; N-terminus and C-terminus assumed),highest level of peptide-specific T cells in one healthy donor,[1]; day 10,0.5%
same,healthy donors with peptide-specific T cells detected / expansion,[1],2
same,patients with reactive T cells >0.05% on day 10,[2],5
same,cytotoxicity against 36M by peptide-specific CTL,[3],specific cytotoxicity
same,cytotoxicity for HLA-A2+ FL by peptide-specific CTL,[4],cytotoxic
FLDPRPLTV [CYP190],generation of peptide-specific CTL from normal donors,[5],can be generated from normal HLA-A2^+ donors
same,HLA-A2/peptide complex stability,HLA-A*0201,longest half-life on the cell surface
same,time after peptide withdrawal at which peptide/A2 complexes can be detected,HLA-A*0201,≥ 24 h
same,lysis of peptide-pulsed T2 cells by peptide-specific CTL,T2 cells; CTL from healthy donors,can lyse
same,lysis of HLA-A2+ primary ALL cells by peptide-specific CTL,[6],can lyse
same,generation of peptide-specific CTL from cancer patients,[7],can be generated from HLA-A2^+ cancer patients
B1,T2 assay result at 0 h post-pulsing,[8],2
same,T2 assay result at 2 h post-pulsing,[8],1.51
same,T2 assay result at 4 h post-pulsing,[8],1.24
same,T2 assay result at 6 h post-pulsing,[8],1.16
same,T2 assay result at 24 h post-pulsing,[8],0.73
B2,T2 assay result at 0 h post-pulsing,[8],2.16
same,T2 assay result at 2 h post-pulsing,[8],1.57
same,T2 assay result at 4 h post-pulsing,[8],1.31
same,T2 assay result at 6 h post-pulsing,[8],1.13
same,T2 assay result at 24 h post-pulsing,[8],0.72
FLDPRPLTV [CYP190 peptide from cytochrome P450 1B1 (FLDPRPLTV)],binding result,[9],binds
B3,Binding affinity [FI] (fluorescence index),[10],3.8
same,T2 assay result at 0 h post-pulsing,[8],1.91
same,T2 assay result at 2 h post-pulsing,[8],1.37
same,T2 assay result at 4 h post-pulsing,[8],0.78
same,T2 assay result at 6 h post-pulsing,[8],0.58
same,T2 assay result at 24 h post-pulsing,[8],0.12
WLQYFPNPV [CYP246 peptide from cytochrome P450 1B1 (WLQYFPNPV)],Binding affinity [FI] (fluorescence index),[10],3.4
